According to the supplement of paper PMC7125110:
± gives the standard error. For part of these data: This sample holds only a part of the variants without activity.

B1: glmS ribozyme (parent)
chain: AUAAAAGCGCCAGAACUACAGAAAUGUAGUUGACGAGGAGGAGGUUUAUCGAAUUUUCGGCGGAUGCCUCCAAA

Tests used:
Settings in all cases: with glucosamine-6-phosphate
glucosamine-6-phosphate [1] = variants of: B1; experiment: kcat; higher = faster cleavage; RNA array
Summary of the method: (§1)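 In situ transcription by E. coli RNA polymerase produced barcoded ribozyme variants on sequenced MiSeq chips, and a hybridised Cy3 probe tracked them at 37 °C. Glucosamine-6-phosphate was flowed in at 40 μM to 10 mM in HEPES/KCl/Mg(OAc)2 buffer. kcat and KM were taken from weighted Michaelis–Menten fits of kobs values from exponential decay fits.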

glucosamine-6-phosphate [2] = variants of: B1; experiment: self-cleavage kobs at 40 uM GlcN6P; higher = faster cleavage; RNA array
Summary of the method: as §1

glucosamine-6-phosphate [3] = variants of: B1; experiment: self-cleavage kobs at 160 uM GlcN6P; higher = faster cleavage; RNA array
Summary of the method: as §1

glucosamine-6-phosphate [4] = variants of: B1; experiment: self-cleavage kobs at 640 uM GlcN6P; higher = faster cleavage; RNA array
Summary of the method: as §1

glucosamine-6-phosphate [5] = variants of: B1; experiment: self-cleavage kobs at 2500 uM GlcN6P; higher = faster cleavage; RNA array
Summary of the method: as §1

glucosamine-6-phosphate [6] = variants of: B1; experiment: self-cleavage kobs at 10000 uM GlcN6P; higher = faster cleavage; RNA array
Summary of the method: as §1

glucosamine-6-phosphate [7] = variants of: B1; experiment: KM; higher = weaker cofactor use; RNA array
Summary of the method: as §1

Variant	kcat (glucosamine-6-phosphate [1])	self-cleavage kobs at 40 uM GlcN6P (glucosamine-6-phosphate [2])	self-cleavage kobs at 160 uM GlcN6P (glucosamine-6-phosphate [3])	self-cleavage kobs at 640 uM GlcN6P (glucosamine-6-phosphate [4])	self-cleavage kobs at 2500 uM GlcN6P (glucosamine-6-phosphate [5])	self-cleavage kobs at 10000 uM GlcN6P (glucosamine-6-phosphate [6])	KM (glucosamine-6-phosphate [7])
A12U U47G C70G	0.000218 ± 4.7e-05 s⁻¹	6.36e-05 ± 1.3e-05 s⁻¹	7.51e-05 ± 1.5e-05 s⁻¹	0.000234 ± 3.9e-05 s⁻¹	0.000217 ± 3.7e-05 s⁻¹	0.000201 ± 3.3e-05 s⁻¹	
A12G C67G	0.000322 ± 4.9e-06 s⁻¹		2.45e-05 ± 1.1e-05 s⁻¹	8.36e-05 ± 8.2e-06 s⁻¹	0.000182 ± 1.7e-05 s⁻¹	0.000273 ± 1.9e-05 s⁻¹	1850 ± 62 µM
G44A U65A	0.000154 ± 9.6e-06 s⁻¹			6.51e-05 ± 2.8e-05 s⁻¹	0.000133 ± 3.6e-05 s⁻¹	0.000139 ± 2e-05 s⁻¹	828 ± 240 µM
A36C U54A	< 1e-05 s⁻¹		< 1e-05 s⁻¹				
G29A A33C	5.32e-05 ± 1.2e-05 s⁻¹	< 1e-05 s⁻¹			5.47e-05 ± 1.8e-05 s⁻¹	4.65e-05 ± 1.4e-05 s⁻¹	
G37A G41C	2.41e-05 ± 9.5e-06 s⁻¹				3.87e-05 ± 1.5e-05 s⁻¹		
A53C U65A C70A C71A	1.25e-05 ± 4e-06 s⁻¹						
C16A U65C	2.42e-05 ± 3.7e-08 s⁻¹						654 ± 8.5 µM
G40U G59A	< 1e-05 s⁻¹		< 1e-05 s⁻¹	< 1e-05 s⁻¹			
G62A C71G	1.44e-05 ± 2.8e-06 s⁻¹						
C34A G51U C67U	0.000275 ± 1.8e-05 s⁻¹			4.9e-05 ± 2e-05 s⁻¹	0.00014 ± 3.7e-05 s⁻¹	0.000213 ± 4.5e-05 s⁻¹	2730 ± 390 µM
U31A U57A	0.000241 ± 3.5e-06 s⁻¹			4.97e-05 ± 2.1e-05 s⁻¹	0.000125 ± 2.8e-05 s⁻¹	0.000194 ± 2.7e-05 s⁻¹	2390 ± 95 µM
G13U U49G	1.85e-05 ± 6.3e-06 s⁻¹	< 1e-05 s⁻¹	< 1e-05 s⁻¹				
C61A C68G	1.96e-05 ± 3.4e-06 s⁻¹						
C61A C68U	1.56e-05 ± 2e-06 s⁻¹						
U54G U56A G66A	0.00395 ± 0.00074 s⁻¹	0.000108 ± 1.7e-05 s⁻¹	0.000344 ± 5.5e-05 s⁻¹	0.00162 ± 0.00028 s⁻¹	0.00236 ± 0.00049 s⁻¹	0.00335 ± 0.00067 s⁻¹	1470 ± 370 µM
A15U G29C	0.00199 ± 0.00051 s⁻¹	4.56e-05 ± 9.9e-06 s⁻¹	0.000116 ± 3.3e-05 s⁻¹	0.000432 ± 7.6e-05 s⁻¹	0.000809 ± 0.00016 s⁻¹	0.00191 ± 0.0003 s⁻¹	2340 ± 910 µM
A33C U69A	< 1e-05 s⁻¹		< 1e-05 s⁻¹	< 1e-05 s⁻¹			
C8U U49A	< 1e-05 s⁻¹	< 1e-05 s⁻¹		< 1e-05 s⁻¹	< 1e-05 s⁻¹	< 1e-05 s⁻¹	

Variant	kcat (glucosamine-6-phosphate [1])	self-cleavage kobs at 40 uM GlcN6P (glucosamine-6-phosphate [2])	self-cleavage kobs at 160 uM GlcN6P (glucosamine-6-phosphate [3])	self-cleavage kobs at 640 uM GlcN6P (glucosamine-6-phosphate [4])	self-cleavage kobs at 2500 uM GlcN6P (glucosamine-6-phosphate [5])	self-cleavage kobs at 10000 uM GlcN6P (glucosamine-6-phosphate [6])	KM (glucosamine-6-phosphate [7])
G32U C70G	7.04e-05 ± 1e-05 s⁻¹			8.68e-05 ± 1.2e-05 s⁻¹	5.3e-05 ± 5.7e-06 s⁻¹	7.56e-05 ± 4.5e-06 s⁻¹	
A1U U2G A3G A5U	0.0105 ± 0.0015 s⁻¹	0.000338 ± 5.7e-05 s⁻¹	0.00116 ± 0.00022 s⁻¹	0.00274 ± 0.00078 s⁻¹	0.006 ± 0.0016 s⁻¹	0.0103 ± 0.0017 s⁻¹	1320 ± 260 µM
A12U U46C	0.0152 ± 0.0021 s⁻¹	0.000227 ± 3.3e-05 s⁻¹	0.00106 ± 0.00025 s⁻¹	0.00223 ± 0.00068 s⁻¹	0.00688 ± 0.0018 s⁻¹	0.0123 ± 0.0017 s⁻¹	2700 ± 520 µM
U49G C71A	0.000155 ± 8.2e-06 s⁻¹			5.22e-05 ± 1.8e-05 s⁻¹	8.83e-05 ± 2.5e-05 s⁻¹	0.000137 ± 1.9e-05 s⁻¹	1460 ± 260 µM
U49A C61U	< 1e-05 s⁻¹						
C11A U57G	< 1e-05 s⁻¹		< 1e-05 s⁻¹				
C11A U57C	< 1e-05 s⁻¹			< 1e-05 s⁻¹			
C11A A12U U45G U55A C70U	0.00104 ± 0.00013 s⁻¹				7.5e-05 ± 3.1e-05 s⁻¹	0.000245 ± 5.6e-05 s⁻¹	
U31A U56G	0.0146 ± 0.0054 s⁻¹	0.000249 ± 5.8e-05 s⁻¹	0.000532 ± 0.00021 s⁻¹	0.00335 ± 0.00098 s⁻¹	0.00579 ± 0.0015 s⁻¹	0.0132 ± 0.0039 s⁻¹	2950 ± 1500 µM
A6G C67A	0.00012 ± 9e-06 s⁻¹	< 1e-05 s⁻¹				9.19e-05 ± 1.6e-05 s⁻¹	3130 ± 670 µM
C16A G51A	< 1e-05 s⁻¹					< 1e-05 s⁻¹	632 ± 220 µM
G32U A53G	0.00107 ± 0.00015 s⁻¹		5.42e-05 ± 9e-06 s⁻¹	0.000174 ± 1.8e-05 s⁻¹	0.000375 ± 5.5e-05 s⁻¹	0.000847 ± 7.5e-05 s⁻¹	3390 ± 750 µM
G32U A53C	0.000282 ± 0.00012 s⁻¹			0.000104 ± 2.3e-05 s⁻¹	0.000105 ± 2.7e-05 s⁻¹	0.000275 ± 4.6e-05 s⁻¹	
U31A G59A	0.000128 ± 1.5e-05 s⁻¹			2.94e-05 ± 1.4e-05 s⁻¹	5.49e-05 ± 1.7e-05 s⁻¹	0.000104 ± 2.3e-05 s⁻¹	2710 ± 740 µM
G32U U69C	0.00053 ± 3.6e-05 s⁻¹			7.6e-05 ± 2.3e-05 s⁻¹	0.000232 ± 4.8e-05 s⁻¹	0.000391 ± 5.4e-05 s⁻¹	3470 ± 470 µM
G37A U47A	0.00374 ± 0.0017 s⁻¹	4.6e-05 ± 1.8e-05 s⁻¹	7.83e-05 ± 1.8e-05 s⁻¹	0.000278 ± 4.8e-05 s⁻¹	0.000752 ± 0.00014 s⁻¹	0.00229 ± 0.00044 s⁻¹	
U54C C58G	5.26e-05 ± 4.8e-06 s⁻¹					3.05e-05 ± 1.2e-05 s⁻¹	7250 ± 1300 µM
C11A G62A	1.14e-05 ± 2e-06 s⁻¹						
